Five molecules from patent publication US20220411504A1 (Janssen / Centocor, published 2022) can be followed below.

The target of assay [1] is T1, Human CD3 epsilon (CD3ε) of the T cell receptor complex on cells (human, UniProt P07766 23-207).
T1 construct: On Jurkat cells and primary human (pan) T cells; also called T-cell surface glycoprotein CD3 epsilon chain; T3E
The experiment in a line: T cell binding (method not described).

Assay [2] addresses T2, HLA-G on cells (K562-HLA-G and HLA-G expressing tumor cells) (human).
T2 construct: whole, on cells; also called HLA-G1
The experiment in a line: K562-HLA-G cell binding (method not described).

Assay [3] addresses T2, HLA-G on cells (K562-HLA-G and HLA-G …). The experiment in a line: cell-based or functional assay.
Assay [4] has as its target T3, recombinant human DLL3 (human, UniProt Q9NYJ7 27-492).
T3 construct: also called DLL3 antigen; Delta-like protein 3
T3 sequence: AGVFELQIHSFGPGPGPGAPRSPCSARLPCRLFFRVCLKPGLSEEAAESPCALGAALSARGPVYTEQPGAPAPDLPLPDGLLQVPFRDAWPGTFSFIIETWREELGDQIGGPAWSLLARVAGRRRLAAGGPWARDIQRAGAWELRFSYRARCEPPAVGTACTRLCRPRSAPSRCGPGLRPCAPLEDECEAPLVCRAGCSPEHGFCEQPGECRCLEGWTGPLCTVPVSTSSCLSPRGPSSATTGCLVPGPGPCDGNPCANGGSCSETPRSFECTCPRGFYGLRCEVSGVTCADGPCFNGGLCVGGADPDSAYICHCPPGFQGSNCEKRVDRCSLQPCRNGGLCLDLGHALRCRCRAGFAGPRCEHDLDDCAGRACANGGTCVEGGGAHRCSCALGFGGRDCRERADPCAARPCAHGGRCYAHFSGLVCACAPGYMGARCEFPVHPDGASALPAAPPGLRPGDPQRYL
The experiment in a line: SPR (Biacore T200), antibody captured by goat anti-Fc, DLL3 titrated.

The target of assay [5] is T3, recombinant human DLL3. Described as above. The source holds these as a separate data set.
For assay [6], the target named is T1, Human CD3 epsilon (CD3ε) of the T cell …. The experiment in a line: flow cytometry on human pan T cells. In general terms: Flow cytometry measures light scatter and fluorescence of single cells or particles in a stream.
The target of assay [7] is T4, DLL3 on tumor cells (SHP-77, HCC1833, G361) (human, UniProt Q9NYJ7 27-618).
T4 sequence: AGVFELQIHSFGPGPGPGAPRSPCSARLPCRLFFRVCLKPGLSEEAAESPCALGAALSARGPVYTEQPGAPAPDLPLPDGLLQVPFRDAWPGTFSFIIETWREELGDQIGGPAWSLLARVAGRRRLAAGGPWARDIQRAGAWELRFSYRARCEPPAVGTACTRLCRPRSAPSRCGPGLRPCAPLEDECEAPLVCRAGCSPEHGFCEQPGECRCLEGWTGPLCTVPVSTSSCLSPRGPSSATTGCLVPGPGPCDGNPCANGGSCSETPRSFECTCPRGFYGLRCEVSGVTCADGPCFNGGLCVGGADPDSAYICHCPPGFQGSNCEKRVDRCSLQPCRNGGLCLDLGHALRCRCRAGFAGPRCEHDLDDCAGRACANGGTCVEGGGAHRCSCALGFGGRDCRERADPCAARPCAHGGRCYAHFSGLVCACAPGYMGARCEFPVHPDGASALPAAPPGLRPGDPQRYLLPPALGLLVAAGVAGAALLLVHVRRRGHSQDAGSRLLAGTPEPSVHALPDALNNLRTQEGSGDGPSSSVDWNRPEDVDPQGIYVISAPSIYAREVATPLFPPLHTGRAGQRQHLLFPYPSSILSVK
The experiment in a line: cell-based or functional assay.

In assay [8] the target is T5, human Kallikrein-2 6-His protein (soluble hK2) (human, UniProt P20151 18-261, limits assumed).
T5 construct: The assays say only 'soluble hK2' or 'human KLK2 antigen'; also called KLK2; kallikrein related peptidase 2
T5 sequence (P20151 other isoform, or with tags, fused parts or gaps limits assumed): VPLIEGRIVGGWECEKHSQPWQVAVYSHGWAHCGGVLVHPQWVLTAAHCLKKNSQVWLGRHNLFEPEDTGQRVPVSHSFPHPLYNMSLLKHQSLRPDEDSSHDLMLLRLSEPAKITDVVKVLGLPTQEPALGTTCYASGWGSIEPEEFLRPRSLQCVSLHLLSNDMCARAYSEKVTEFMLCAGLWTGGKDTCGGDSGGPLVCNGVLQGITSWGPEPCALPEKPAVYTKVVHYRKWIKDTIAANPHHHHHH
The experiment in a line: SPR, bispecific captured by anti-Fc, soluble hK2 injected. On the technique in general: In SPR one partner is held on a chip, and binding of the other changes the refractive index at the surface.

Like-named read-outs stand apart in the source and are kept apart here.

T1 sequence (P07766 23-207 limits assumed, one chain of several): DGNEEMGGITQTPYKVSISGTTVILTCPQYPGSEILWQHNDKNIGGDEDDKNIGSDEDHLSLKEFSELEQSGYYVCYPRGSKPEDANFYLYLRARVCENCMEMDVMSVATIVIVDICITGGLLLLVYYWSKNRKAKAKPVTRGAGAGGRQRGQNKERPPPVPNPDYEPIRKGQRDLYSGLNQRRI

B1: HC3B125 (bispecific antibody, human IgG1, lambda, L234A L235A)
heavy: QVQLQQSGPRLVRPSQTLSLTCAISGDSVFNNNAAWSWIRQSPSRGLEWLGRTYYRSKWLYDYAVSVKSRITVNPDTSRNQFTLQLNSVTPEDTALYYCARGYSSSFDYWGQGTLVTVSSASTKGPSVFPLAPSSKSTSGGTAALGCLVKDYFPEPVTVSWNSGALTSGVHTFPAVLQSSGLYSLSSVVTVPSSSLGTQTYICNVNHKPSNTKVDKKVEPKSCDKTHTCPPCPAPEAAGGPSVFLFPPKPKDTLMISRTPEVTCVVVSVSHEDPEVKFNWYVDGVEVHNAKTKPREEQYNSTYRVVSVLTVLHQDWLNGKEYKCKVSNKALPAPIEKTISKAKGQPREPQVYVYPPSREEMTKNQVSLTCLVKGFYPSDIAVEWESNGQPENNYKTTPPVLDSDGSFALVSKLTVDKSRWQQGNVFSCSVMHEALHNHYTQKSLSLSPG
light: QSALTQPASVSGSPGQSITISCTGTSSNIGTYKFVSWYQQHPDKAPKVLLYEVSKRPSGVSSRFSGSKSGNTASLTISGLQAEDQADYHCVSYAGSGTLLFGGGTKLTVLGQPKAAPSVTLFPPSSEELQANKATLVCLISDFYPGAVTVAWKADSSPVKAGVETTTPSKQSNNKYAASSYLSLTPEQWKSHRSYSCQVTHEGSTVEKTVAPTECS
scFv: DIVMTQSPDSLAVSLGERATINCKSSQSVLHSSNNKNYLTWFQQKPGQPPKLLIYWASTRESGVPDRFSGSGSGTDFTLTISSLQAEDVAVYYCHQYYSTPPTFGQGTKVEIKGGSEGKSSGSGSESKSTGGSQVQLQQSGPGLVKPSQTLSLTCAISGDSVSSNSAAWNWIRQSPSRGLEWLGRTYYRSKWYNDYAVSVKSRITINPDTSKNQISLQLNSVTPEDTAVYYCAGDRRYGIVGLPFAYWGQGTLVTVSSEPKSSDKTHTCPPCPAPEAAGGPSVFLFPPKPKDTLMISRTPEVTCVVVSVSHEDPEVKFNWYVDGVEVHNAKTKPREEQYNSTYRVVSVLTVLHQDWLNGKEYKCKVSNKALPAPIEKTISKAKGQPREPQVYVLPPSREEMTKNQVSLLCLVKGFYPSDIAVEWESNGQPENNYLTWPPVLDSDGSFFLYSKLTVDKSRWQQGNVFSCSVMHEALHNHYTQKSLSLSPG
notes: No codon for C-terminal K447; also called CD3B376-Fab-Fc x MHGB732-LH-scFv-Fc; HCB125
As to B1, the EC50 (in general, the concentration that produces a half-maximal response) in assay [1] worked out at 60 nM; in assay [2], 12 nM. The “Cytotoxicity, EC50 (T cell-mediated, NCI-H2009-b2m target cells, 72 hr)” value in assay [3] stood at 0.0565 nM.

B2: DL3B585 (bispecific antibody, human IgG1, lambda, L234A L235A)
scFv: DIQMTQSPSSLSASVGDRVTITCRASQGISNYLAWFQQKPGKAPKSLIYAASSLQSGVPSKFSGSGSGTDFTLTISSLQPEDFATYYCQQYNSYPYTFAQGTKLEIKGGSEGKSSGSGSESKSTGGSQVQLVQSGAEVKKPGASVKVSCKASGNTFTNYYIHWVRQAPGQGLEWMGIINPSGGSTSYAQKLQGRMTMTRDTSTSTVYMELSSLRSEDTAVYFCARQGPFIGDAFDIWGQGTMVTVSSEPKSSDKTHTCPPCPAPEAAGGPSVFLFPPKPKDTLMISRTPEVTCVVVSVSHEDPEVKFNWYVDGVEVHNAKTKPREEQYNSTYRVVSVLTVLHQDWLNGKEYKCKVSNKALPAPIEKTISKAKGQPREPQVYVLPPSREEMTKNQVSLLCLVKGFYPSDIAVEWESNGQPENNYLTWPPVLDSDGSFFLYSKLTVDKSRWQQGNVFSCSVMHEALHNHYTQKSLSLS
heavy: B1 heavy
light: B1 light
notes: also called CD3B376-Fab; DL3B279-LH-scFv
Turning to B2, the Kd in assay [4] and in assay [5] was 0.024 nM in each case. In addition, the binding result in assay [6] is “binds”. Moreover, the “Cytotoxicity, % lysis of SHP-77 cells (whole PBMCs, 1:1 ET, 30 nM)” value in assay [7] is 58.1%.

B3: D3C3B80 (bispecific antibody, human IgG1, lambda, L234A L235A)
scFv: DIQMTQSPSSLSASVGDRVTITCRASQGISNYLAWFQQKPGKAPKSLIYAASSLQSGVPSKFSGSGSGTDFTLTISSLQPEDFATYYCQQYNSYPYTFGQGTKLEIKGGSEGKSSGSGSESKSTGGSQVQLVQSGAEVKKPGASVKVSCKASGQTFTNYYIHWVRQAPGQGLEWMGIINPSGGSTSYAQKLQGRMTMTRDTSTSTVYMELSSLRSEDTAVYFCARQGPFIGDAFDIWGQGTTVTVSSEPKSSDKTHTCPPCPAPEAAGGPSVFLFPPKPKDTLMISRTPEVTCVVVSVSHEDPEVKFNWYVDGVEVHNAKTKPREEQYNSTYRVVSVLTVLHQDWLNGKEYKCKVSNKALPAPIEKTISKAKGQPREPQVYVLPPSREEMTKNQVSLLCLVKGFYPSDIAVEWESNGQPENNYLTWPPVLDSDGSFFLYSKLTVDKSRWQQGNVFSCSVMHEALHNHYTQKSLSLSPGK
heavy: QVQLQQSGPRLVRPSQTLSLTCAISGDSVFNNNAAWSWIRQSPSRGLEWLGRTYYRSKWLYDYAVSVKSRITVNPDTSRNQFTLQLNSVTPEDTALYYCARGYSSSFDYWGQGTLVTVSSASTKGPSVFPLAPSSKSTSGGTAALGCLVKDYFPEPVTVSWNSGALTSGVHTFPAVLQSSGLYSLSSVVTVPSSSLGTQTYICNVNHKPSNTKVDKKVEPKSCDKTHTCPPCPAPEAAGGPSVFLFPPKPKDTLMISRTPEVTCVVVSVSHEDPEVKFNWYVDGVEVHNAKTKPREEQYNSTYRVVSVLTVLHQDWLNGKEYKCKVSNKALPAPIEKTISKAKGQPREPQVYVYPPSREEMTKNQVSLTCLVKGFYPSDIAVEWESNGQPENNYKTTPPVLDSDGSFALVSKLTVDKSRWQQGNVFSCSVMHEALHNHYTQKSLSLSPGK
light: B1 light
notes: also called C3C3B80
For B3, the Kd (usually the constant that tells how readily two partners part at equilibrium) in assay [4] was 0.033 nM. In addition, the binding result in assay [6] is on record as “binds”.

B4: HC3B258 (bispecific antibody, human IgG1, lambda, L234A L235A)
heavy: B1 heavy
light: B1 light
scFv: B1 scFv
notes: Differs from HC3B125 only by a codon for the C-terminal lysine K447, which is processed; also called CD3B376-Fab-Fc x MHGB732-LH-scFv-Fc (with K447 codon)
In the case of B4, the EC50 in assay [1] worked out at 60 nM; in assay [2] it was 11 nM.

B5: KL2B242 Fab (arm of a hK2/CD3 bispecific, Table 40) (bispecific antibody)
chain 1: QVQLQESGPGLVKPSETLSLTCTVSGGSISSYYWSWLRQPAGSGLEWIGRLYVSGFTNYNPSLKSRVTLSLDPSRNQLSLKLSSVTAADTAVYYCAGDSGNYWGWFDPWGQGTLVTVSSASTKGPSVFPLAPSSKSTSGGTAALGCLVKDYFPEPVTVSWNSGALTSGVHTFPAVLQSSGLYSLSSVVTVPSSSLGTQTYICNVNHKPSNTKVDKKVEPKSCDKTHTCPPCPAPEAAGGPSVFLFPPKPKDTLMISRTPEVTCVVVSVSHEDPEVKFNWYVDGVEVHNAKTKPREEQYNSTYRVVSVLTVLHQDWLNGKEYKCKVSNKALPAPIEKTISKAKGQPREPQVYVLPPSREEMTKNQVSLLCLVKGFYPSDIAVEWESNGQPENNYLTWPPVLDSDGSFFLYSKLTVDKSRWQQGNVFSCSVMHEALHNHYTQKSLSLSPG
chain 2: SYELTQPPSVSVSPGETASITCSGDQLGENYASWYQQKPGQSPVLVIYQDSKRPSGIPERFSGSNSGNTATLTISGTQALDEADYYCQAWDNSIVVFGGGTKLTVLGQPKAAPSVTLFPPSSEELQANKATLVCLISDFYPGAVTVAWKADSSPVKAGVETTTPSKQSNNKYAASSYLSLTPEQWKSHRSYSCQVTHEGSTVEKTVAPTECS
chain 3: DIQMTQSPSSLSASVGDRVTITCRARQSIGTAIHWYQQKPGKAPKLLIKYASESISGVPSRFSGSGSGTDFTLTISSLQPEDFATYYCQQSGSWPYTFGQGTKLEIKGGSEGKSSGSGSESKSTGGSEVQLVESGGGLVKPGGSLRLSCAASGFTFSRYNMNWVRQAPGKGLEWVSSISTSSNYIYYADSVKGRFTFSRDNAKNSLDLQMSGLRAEDTAIYYCTRGWGPFDYWGQGTLVTVSSEPKSSDKTHTCPPCPAPEAAGGPSVFLFPPKPKDTLMISRTPEVTCVVVSVSHEDPEVKFNWYVDGVEVHNAKTKPREEQYNSTYRVVSVLTVLHQDWLNGKEYKCKVSNKALPAPIEKTISKAKGQPREPQVYVYPPSREEMTKNQVSLTCLVKGFYPSDIAVEWESNGQPENNYKTTPPVLDSDGSFALVSKLTVDKSRWQQGNVFSCSVMHEALHNHYTQKSLSLSPG
For the molecule B5, the equilibrium dissociation constant (Kd) in assay [8] was determined as 0.14 nM.
